Positions of bridges follow the written chain, without caps; N, C: chain ends. Non-standard residues stand in square brackets, D forms with d. No end group written: not given here.
Assays:
Format in all cases: physicochemical
[1] = Thermal denaturation monitored by CD spectroscopy; settings: CD wavelength scans, heated to 95° C. and cooled back; 10 mM sodium phosphate buffer (pH 7.0)
Description: (§1) The stability of the designs to thermal and chemical denaturation was assessed by CD spectroscopy. Samples were heated to 95° C. (FIG. 2c), or incubated with increasing concentrations of guanidinium hydrochloride (GdnHCl) (FIG. 2d). The contribution of disulfide bonds to protein folding was assessed by incubating samples with a ˜100-fold molar excess of the reductant tris (2-carboxyethyl) phosphine (TCEP).
(§2) Circular dichroism (CD) wavelength and temperature scans were recorded on AVIV model 420 or Jasco J-1500 CD spectrometer. For thermal denaturation, peptides samples were prepared at 0.07-0.2 mg/ml final concentration in 10 mM sodium phosphate buffer (pH 7.0). Wavelength scans from 195 nm to 260 nm were recorded at 25° C., 55° C., 95° C., and again after cooling back to 25° C. For chemical denaturation experiments, samples for each peptide were prepared in the presence of 0 M to 6 M GdnHCl concentrations. The concentration of GdnHCl was measured by refractometry. Peptide samples were also prepared in the presence of 2.5 mM TCEP (TCEP was pre-equilibrated to pH 7.0 prior to addition), and incubated for 3 hours. Peptide concentrations were the same across all samples. Wavelength scans from 190 nm to 260 nm were recorded for each sample in 0.1 cm cuvette.

[2] = Chemical denaturation with guanidinium hydrochloride (GdnHCl) monitored by CD spectroscopy; settings: 0 M to 6 M GdnHCl
Description: as §1, §2

[3] = Reduction of disulfide bonds with TCEP, folding monitored by CD spectroscopy; settings: 2.5 mM TCEP (~100-fold molar excess), incubated for 3 hours
Description: as §1, §2

[4] = NMR secondary 1Hα chemical shifts at a range of temperatures
Description: FIG. 19: Secondary ^1Hα chemical shifts at a range of temperatures for peptide NC_cHLHR_D1 (SEQ ID NO:09). NMR spectra were collected at 25° C. (black bars), 55° C. (blue bars), 75° C. (red bars), and again after cooling to 25° C. (green bars).
Each non-canonical peptide (1 mg) was dissolved in […] of 10% D20/90% H2O or 100% D2O (˜pH 4). NMR spectra were recorded at 298K on a Bruker Avance-600 spectrometer. Two-dimensional NMR experiments included TOCSY with an […] MLEV-17 spin lock, NOESY (200 ms mixing time), ECOSY, as well as natural-abundance ^13C and ^15N HSQC. Solvent suppression was achieved using excitation sculpting. Spectra were processed using Topspin 2.1 then analyzed using CcpNmr Analysis. Chemical shifts were referenced to internal 2,2-dimethyl-2-silapentane-5-sulfonate (DSS).

| Substance | stability to thermal denaturation (CD spectra) [1] | stability to chemical denaturation (CD spectra) [2] | folding / secondary structure in the presence of the reductant TCEP (CD spectra) [3] | change of secondary 1Hα chemical shifts (secondary structure) on heating ([4]; NMR spectra at 25° C., 55° C., 75° C.) | aggregation or irreversible conformation change on heating (secondary chemical shifts after cooling) ([4]; NMR, again after cooling to 25° C.) |
| --- | --- | --- | --- | --- | --- |
| EERRYKRCGQDEERVRRECKERGERQNCQYQIRKEGNCYVCEIRC [gEHEE_06] | thermostable | completely resistant to chemical denaturation | – | – | – |
| PCEDLKERLKKLGMSEECRQRLEKMCKEGTSEDAERMARNCES [gHHH_06] | partially unfolds upon heating to 95 °C but returns to the folded state upon cooling | – | – | – | – |
| SQETRKKCTEMKKKFKNCEVRCDESNHCVEVRCSDTKYTLC [gHEEE_02] | resistant to both thermal and chemical denaturation | resistant to both thermal and chemical denaturation | – | – | – |
| CRCHITSSCVRVEGDNGEEYRYCSSDEEDLRRFCKEMQKQC [gEEEH_04] | resistant to both thermal and chemical denaturation | resistant to both thermal and chemical denaturation | – | – | – |
| PCECDVNGETYTVSSSEECERLCRKLGVTNCRVHCG [gEEHE_02] | impervious to both thermal and chemical denaturation | impervious to both thermal and chemical denaturation | remained partially folded in the presence of TCEP | – | – |
| CKQRRRYRGSEEECRKYAEELSRRTGCEVEVECET [gEHE_06] | thermally and chemically stable | thermally and chemically stable | remained folded in the presence of TCEP | – | – |
| NPELQRKCKELdTRpeaerkcreeSD (cyclo(NPELQRKCKEL[dD]TR[dP][dE][dA][dE][dR][dK][dC][dR][dE][dE]SD); disulfide 8-21 (inferred)) [NC_cHLHR_D1] | no change was observable on heating to 95 °C | – | – | no significant loss of secondary structure resulting from heating | not aggregation-prone or otherwise prone to irreversible conformation changes on heating |
| CQTWRrVSPEECRKYKEEYnCVRCTE (CQTWR[dR]VSPEECRKYKEEY[dN]CVRCTE; disulfide 1-21, 12-24) [NC_EHE_D1] | only a small decrease | – | – | – | – |
| TCEIRVTDTHCKVHCGTQEYKVPPGRTLKVGNCRFTYHDTTCTVECR [gEEEEEE_02] | resistant to both thermal and chemical denaturation | resistant to both thermal and chemical denaturation | – | – | – |
| HDPEKRKECEKKYTDPKKREECKRKA (cyclo(HDPEKRKECEKKYTDPKKREECKRKA); disulfide 9-22; not fully specified (some residues)) [NC_cHH_D1] | – | do not chemically denature | lost secondary structure | – | – |
| PVTWCVRIpPTVRCTVRp (cyclo(PVTWCVRI[dP]PTVRCTVR[dP]); disulfide 5-14 (inferred)) [NC_cEE_D1] | – | do not chemically denature | not changed by reduction of the central disulfide bond | – | – |
| QCYTFRSECTNKEFTVCRPNPEEVEKEARRTKEEECRK [gEEH_04] | less stable than the others to thermal denaturation | – | – | – | – |
| AEDCERIRKELEKNPNDEIKKKLEKCQA [gHH_44] | resistant to thermal denaturation | – | – | – | – |
| NPEDCRQDPEANKSPEECKKLK (cyclo(NPEDCRQDPEANKSPEECKKLK); disulfide 5-18; not fully specified (some residues)) [NC_cHHH_D1] | – | some loss of secondary structure in 6M GdnHCl | lost secondary structure | – | – |
| NDKCKELKKRYPNCEVRCDpPRYEVHC (NDKCKELKKRYPNCEVRCD[dP]PRYEVHC; disulfide 14-27, 4-18; not fully specified; printed as NDKCKELKKRYPNCEVRCDpPRYEVHC) [NC_HEE_D1] | no loss in secondary structure | does not denature in 6 M GdnHCl | – | – | – |
